Our source for the protein stability index values is the supplement of paper PMC10567573.

To fix the notation:
B1: KLHL12 (parent)
chain: SMTTPRCYVGATVLRGRLYAIAGY
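Also: lentivirally expressed fusions sorted by FACS into six bins by GFP to DsRed ratio, PSI derived from sequencing read proportions per bin multiplied by bin number.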

In the series the parent is B1. Kind of series: protein stability index of a GFP-peptide fusion (GPS, HEK-293T) (PSI 1-6); higher = more stable. The conditions noted are these: c terminus: a fixed tail appended.
For the variant SMTTPRCYVGATVLMGRLYAIAGY [R15M], the protein stability index came to 1.59. Take SMTTPRCYVGATVLGGRLYAIAGY [R15G]: the protein stability index amounted to 2.98.

On to SMTTPRCYVGATVLCGRLYAIAGY [R15C], for which the protein stability index is 3.81. Then SMTTPRCYVGATVLLGRLYAIAGY [R15L], with 2.21. With SMTTPRCYVGATVLEGRLYAIAGY [R15E], the protein stability index worked out at 2.11. Turning to SMTTPRCYVGATVLIGRLYAIAGY [R15I], the protein stability index stood at 2.18. Regarding SMTTPRCYVGATVLAGRLYAIAGY [R15A], the protein stability index turned out to be 2.33. For the variant SMTTPRCYVGATVLPGRLYAIAGY [R15P], the protein stability index was determined as 1.88. As for SMTTPRCYVGADVLRGRLYAIAGY [T12D], the figure is 1.85; as for SMTTPRCYVGAIVLRGRLYAIAGY [T12I], 2.46. For the variant SMTTPRCYVGAFVLRGRLYAIAGY [T12F], the protein stability index stood at 2.4.

As to SMTTPRCYVGAMVLRGRLYAIAGY [T12M], the protein stability index came out at 3.47. Turning to SMTTPRCYVGAQVLRGRLYAIAGY [T12Q], the protein stability index was determined as 1.92. As to SMTTPRCYVGANVLRGRLYAIAGY [T12N], the protein stability index turned out to be 2.87. SMTTPRCYVGALVLRGRLYAIAGY [T12L]: the protein stability index amounted to 2.77. As for SMTTPRCYVGARVLRGRLYAIAGY [T12R], the figure is 2.21; as for SMTTPRCYVGAKVLRGRLYAIAGY [T12K], 2.48. As for SMTTPRCYVGAEVLRGRLYAIAGY [T12E], the figure is 1.1; as for SMTTPTCYVGATVLRGRLYAIAGY [R6T], 1.53.

With SMTTPQCYVGATVLRGRLYAIAGY [R6Q], the protein stability index is 2.54. With SMTTPFCYVGATVLRGRLYAIAGY [R6F], the protein stability index stood at 2.04. Then SMTTPNCYVGATVLRGRLYAIAGY [R6N], with 2.26; and SMTTPLCYVGATVLRGRLYAIAGY [R6L], with 1.18. Then SMTTPPCYVGATVLRGRLYAIAGY [R6P], with 1.83; and SMTTPDCYVGATVLRGRLYAIAGY [R6D], with 2.56; and SMTTPRCYVGATVLRTRLYAIAGY [G16T], with 2.04. For SMTTPRCYVGATVLRYRLYAIAGY [G16Y], the protein stability index worked out at 2.42.

SMTTPRCYVGATVLRWRLYAIAGY [G16W]: the protein stability index is 1.48.

In the case of SMTTPRCYVGATVLRFRLYAIAGY [G16F], the protein stability index was found to be 2.91. As for SMTTPRCYVGATVLRLRLYAIAGY [G16L], the protein stability index came out at 2.05. Regarding SMTTPRCYVGATVLRKRLYAIAGY [G16K], the protein stability index was found to be 1.77.

As for SMTTPRCYVGATVLRNRLYAIAGY [G16N], the protein stability index was found to be 1.98. SMTTPRCYVGATVLRCRLYAIAGY [G16C]: the protein stability index came out at 2.22. Turning to SMTTPRCYVGATVLRPRLYAIAGY [G16P], the protein stability index worked out at 2.19. Then SMTTPRCYVGATVLRQRLYAIAGY [G16Q], with 1.45. With SMTTPRCYEGATVLRGRLYAIAGY [V9E], the protein stability index was 2.3. Then SMTTPRCYNGATVLRGRLYAIAGY [V9N], with 2.26; and SMTTPRCYPGATVLRGRLYAIAGY [V9P], with 1.7; and SMTTPRCYWGATVLRGRLYAIAGY [V9W], with 2.17.

As to SMTTPRCYDGATVLRGRLYAIAGY [V9D], the protein stability index is 1.4.

SMTTPRCYLGATVLRGRLYAIAGY [V9L]: the protein stability index is 3.27. For SMTTPRCYIGATVLRGRLYAIAGY [V9I], the protein stability index came to 2.74. SMTTPRCYVGATVLRGRLYADAGY [I21D]: the protein stability index came out at 1.46.

SMTTPRCYVGATVLRGRLYAPAGY [I21P]: the protein stability index stood at 2.29. As for SMTTPRCYVGATVLRGRLYASAGY [I21S], the figure is 1.2; as for SMTTPRCYVGATVLRGRLYACAGY [I21C], 1.37. On to SMTTPRCYVGATVLRGRLYANAGY [I21N], for which the protein stability index was found to be 1.81. SMTTPRCYVGATVLRGRLYAEAGY [I21E]: the protein stability index was 1.78. As to SMTTPRCYVGATVLRGRLYATAGY [I21T], the protein stability index came to 1.37.

As for SMTTPRCYVGATVLRGRLYAWAGY [I21W], the protein stability index was determined as 2.43. As for SMTTPRCYVGATVLRGRLYAAAGY [I21A], the figure is 2.65; as for SMTTPRCYVGATVLRGRLYAFAGY [I21F], 2.81. With SMTTPRCYVYATVLRGRLYAIAGY [G10Y], the protein stability index amounted to 2.21.

With SMTTPRCYVSATVLRGRLYAIAGY [G10S], the protein stability index was found to be 1.02. As for SMTTPRCYVWATVLRGRLYAIAGY [G10W], the protein stability index is 1.11. As for SMTTPRCYVKATVLRGRLYAIAGY [G10K], the protein stability index was 2.11. For the variant SMTTPRCYVLATVLRGRLYAIAGY [G10L], the protein stability index is 2.13. Take SMTTPRCYVDATVLRGRLYAIAGY [G10D]: the protein stability index was determined as 1.1. Consider SMTTPRCYVMATVLRGRLYAIAGY [G10M], for which the protein stability index stood at 2.75. Then SMTTPRCYVEATVLRGRLYAIAGY [G10E], with 3.01; and SMTTPRCYVGATRLRGRLYAIAGY [V13R], with 1.74. Turning to SMTTPRCYVGATDLRGRLYAIAGY [V13D], the protein stability index was 1.28. In the case of SMTTPRCYVGATNLRGRLYAIAGY [V13N], the protein stability index came out at 1.81.

Regarding SMTTPRCYVGATYLRGRLYAIAGY [V13Y], the protein stability index was 2.03.

SMTTPRCYVGATELRGRLYAIAGY [V13E]: the protein stability index was found to be 2.69. Then SMTTPRCYVGATALRGRLYAIAGY [V13A], with 1.83; and SMTTPRCYVGATKLRGRLYAIAGY [V13K], with 1.96. As to SMTTPRCYVGATGLRGRLYAIAGY [V13G], the protein stability index worked out at 2.24. For SMLTPRCYVGATVLRGRLYAIAGY [T3L], the protein stability index came to 2.72. With SMNTPRCYVGATVLRGRLYAIAGY [T3N], the protein stability index is 1.46. As for SMITPRCYVGATVLRGRLYAIAGY [T3I], the figure is 1.02. Take SMETPRCYVGATVLRGRLYAIAGY [T3E]: the protein stability index worked out at 1.65. Take SMVTPRCYVGATVLRGRLYAIAGY [T3V]: the protein stability index worked out at 2.36. Then SMMTPRCYVGATVLRGRLYAIAGY [T3M], with 1.99; and SMSTPRCYVGATVLRGRLYAIAGY [T3S], with 2.31; and SMQTPRCYVGATVLRGRLYAIAGY [T3Q], with 2.67. Regarding SMTTPRCYVGATVSRGRLYAIAGY [L14S], the protein stability index came to 1.9. As for SMTTPRCYVGATVERGRLYAIAGY [L14E], the figure is 1.93. For SMTTPRCYVGATVYRGRLYAIAGY [L14Y], the protein stability index is 3.61. On to SMTTPRCYVGATVIRGRLYAIAGY [L14I], for which the protein stability index is 1.99. For the variant SMTTPRCYVGATVGRGRLYAIAGY [L14G], the protein stability index was found to be 1.55.

On to SMTTPRCYVGATVPRGRLYAIAGY [L14P], for which the protein stability index amounted to 2.01. Turning to SMTTPRCYVGATVNRGRLYAIAGY [L14N], the protein stability index is 1.17. Take SMTTPRCYVGATVTRGRLYAIAGY [L14T]: the protein stability index amounted to 2.5. For the variant SMTTPRCYVGATVDRGRLYAIAGY [L14D], the protein stability index came out at 1.58.

With SMTTPRCYVGATVLRGRLSAIAGY [Y19S], the protein stability index was determined as 2.

On to SMTTPRCYVGATVLRGRLWAIAGY [Y19W], for which the protein stability index came out at 3.23. With SMTTPRCYVGATVLRGRLLAIAGY [Y19L], the protein stability index was 2.15.

For SMTTPRCYVGATVLRGRLGAIAGY [Y19G], the protein stability index worked out at 2.81. As for SMTTPRCYVGATVLRGRLDAIAGY [Y19D], the protein stability index was determined as 1.99.

With SMTTPRCYVGATVLRGRLPAIAGY [Y19P], the protein stability index is 2.22. On to SMTTPRCYVGATVLRGRLNAIAGY [Y19N], for which the protein stability index was found to be 2.66.

As for SMTTPRCYVGATVLRGRLIAIAGY [Y19I], the protein stability index was found to be 3.51.

SMTTPRCYVGATVLRGRLFAIAGY [Y19F]: the protein stability index came out at 2.02.
